{
  "source": "patent US20070243589A1",
  "about": "(Pfizer, published 2007)",
  "key": {"human IL-22 [1]": {"molecular_target": "T1, human IL-22 (human, UniProt Q9GZX6 34-179)", "T1 sequence": "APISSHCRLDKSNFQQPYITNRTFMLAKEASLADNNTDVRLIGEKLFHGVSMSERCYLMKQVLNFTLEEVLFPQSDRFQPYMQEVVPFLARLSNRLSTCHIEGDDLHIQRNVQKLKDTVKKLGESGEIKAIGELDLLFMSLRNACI", "assay": "cell-based or functional assay"}, "murine IL-22 [2]": {"molecular_target": "T2, murine IL-22 (murine, UniProt Q9JJY9 34-179)", "T2 sequence": "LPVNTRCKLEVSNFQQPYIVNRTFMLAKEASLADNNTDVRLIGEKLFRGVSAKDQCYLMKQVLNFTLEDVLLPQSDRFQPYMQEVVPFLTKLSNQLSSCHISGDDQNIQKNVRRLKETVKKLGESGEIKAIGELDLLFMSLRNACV", "assay": "cell-based or functional assay"}, "rat IL-22 [3]": {"molecular_target": "T3, rat IL-22 (rat, UniProt G3V6X6 34-178)", "T3 sequence": "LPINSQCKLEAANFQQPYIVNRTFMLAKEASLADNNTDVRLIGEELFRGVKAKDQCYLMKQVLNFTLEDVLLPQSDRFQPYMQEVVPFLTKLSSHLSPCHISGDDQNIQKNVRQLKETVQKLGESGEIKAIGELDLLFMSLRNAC", "assay": "cell-based or functional assay"}, "monkey IL-22 [4]": {"molecular_target": "monkey IL-22 (monkey)", "assay": "cell-based or functional assay"}, "human IL-22 [5]": {"molecular_target": "T1, human IL-22", "assay": "cell-based or functional assay", "remark": "listed apart in the source"}, "murine IL-22 [6]": {"molecular_target": "T2, murine IL-22", "assay": "cell-based or functional assay", "remark": "listed apart in the source"}, "rat IL-22 [7]": {"molecular_target": "T3, rat IL-22", "assay": "cell-based or functional assay", "remark": "listed apart in the source"}, "monkey IL-22 [8]": {"molecular_target": "monkey IL-22 (monkey)", "assay": "cell-based or functional assay", "remark": "listed apart in the source"}, "human IL-20": {"molecular_target": "T4, human IL-20 (human, UniProt Q9NYY1 25-176)", "T4 sequence (looked up)": "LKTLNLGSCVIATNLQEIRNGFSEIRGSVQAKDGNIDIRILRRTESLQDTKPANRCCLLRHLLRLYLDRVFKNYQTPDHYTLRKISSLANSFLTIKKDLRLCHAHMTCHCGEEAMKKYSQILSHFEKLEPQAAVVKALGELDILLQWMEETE", "assay": "BIA (surface plasmon resonance)"}, "human IL-24": {"molecular_target": "T5, human IL-24 (human, UniProt Q13007 52-206, limits assumed)", "T5 sequence (looked up)": "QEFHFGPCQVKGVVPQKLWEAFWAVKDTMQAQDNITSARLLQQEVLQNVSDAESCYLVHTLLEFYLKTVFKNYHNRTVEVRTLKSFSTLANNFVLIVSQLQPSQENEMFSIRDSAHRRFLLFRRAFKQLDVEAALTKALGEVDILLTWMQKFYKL", "assay": "BIA (surface plasmon resonance)"}, "human IL-28A": {"molecular_target": "T6, human IL-28A (human, UniProt Q8IZJ0 26-200)", "T6 sequence (looked up)": "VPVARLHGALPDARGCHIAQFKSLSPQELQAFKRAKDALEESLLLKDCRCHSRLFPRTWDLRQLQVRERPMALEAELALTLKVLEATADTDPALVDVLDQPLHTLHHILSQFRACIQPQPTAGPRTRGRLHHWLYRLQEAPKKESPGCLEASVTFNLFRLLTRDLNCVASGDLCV", "assay": "BIA (surface plasmon resonance)"}, "human IL-29": {"molecular_target": "human IL-29 (human, UniProt Q8IU54 20-200)", "sequence (Q8IU54 20-200 limits assumed)": "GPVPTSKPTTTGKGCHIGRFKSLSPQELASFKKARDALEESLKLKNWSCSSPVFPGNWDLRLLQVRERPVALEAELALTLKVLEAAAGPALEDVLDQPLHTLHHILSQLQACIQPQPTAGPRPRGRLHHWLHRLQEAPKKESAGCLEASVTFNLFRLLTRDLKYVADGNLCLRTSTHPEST", "assay": "BIA (surface plasmon resonance)"}, "human IFN-ω": {"molecular_target": "T7, human IFN-ω (human, UniProt P05000 24-195)", "T7 sequence (looked up)": "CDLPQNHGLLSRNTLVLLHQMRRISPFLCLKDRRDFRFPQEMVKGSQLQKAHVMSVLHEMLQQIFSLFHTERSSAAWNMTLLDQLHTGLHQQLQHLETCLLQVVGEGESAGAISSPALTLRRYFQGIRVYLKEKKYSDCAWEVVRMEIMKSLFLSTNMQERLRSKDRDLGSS", "assay": "BIA (surface plasmon resonance)"}, "human IL-10": {"molecular_target": "human IL-10 (human, UniProt P22301 19-178)", "sequence (P22301 19-178 limits assumed)": "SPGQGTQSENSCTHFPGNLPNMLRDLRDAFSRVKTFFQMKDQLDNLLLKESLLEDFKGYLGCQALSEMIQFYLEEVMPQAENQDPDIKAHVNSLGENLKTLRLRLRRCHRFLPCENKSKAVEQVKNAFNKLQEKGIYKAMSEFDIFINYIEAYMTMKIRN", "assay": "BIA (surface plasmon resonance)"}, "human IL-19": {"molecular_target": "T8, human IL-19 (human, UniProt Q9UHD0 25-177)", "T8 sequence (looked up)": "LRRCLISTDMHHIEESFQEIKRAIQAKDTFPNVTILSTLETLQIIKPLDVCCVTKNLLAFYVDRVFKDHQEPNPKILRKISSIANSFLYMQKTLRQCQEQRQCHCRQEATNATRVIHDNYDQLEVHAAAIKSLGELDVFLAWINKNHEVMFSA", "assay": "BIA (surface plasmon resonance)"}, "human IL-22 [9]": {"molecular_target": "T1, human IL-22", "assay": "SPR (Biacore), antibody amine-coupled to CM5 chip, human IL-22 as analyte, 1:1 model", "experimental": "To prepare the biosensor surface for the human monoclonal antibodies, either human monoclonal antibody (356A11 or 368D04) or control antibody PD-1 (#17) were immobilized onto a research-grade carboxymethyl dextran chip (CM5) using standard amine coupling. The surface was activated with EDC/NHS. The capturing antibodies were injected at a concentration of 1 μg/ml in sodium acetate buffer (pH 5.5). Remaining activated groups were blocked with 1.0 M ethanolamine (pH 8.0). The first flow cell was used as a reference surface to correct for bulk refractive index, matrix effects, and non-specific binding. The second, third, and fourth flow cells were coated with the capturing molecule.\nThe kinetic data were analyzed using BIAevaluation software 3.0.2 applied to a 1:1 model. The apparent dissociation (Kd) and association (Kₐ) rate constants were calculated from the appropriate regions of the sensorgrams using a global analysis. The affinity constants of the interaction between antibody and analyte were calculated from the kinetic rate constants by the following formulae: KD=Kd/Kₐ, where KD is the dissociation constant and KA=Kₐ/Kd, where KA is the association constant."}},
  "data": [
    {"binder": "356A11, human monoclonal anti-IL-22 antibody as used in Examples 10 and 11 (antibody, V domains shown) VH: QVQLVQSGAEVKKPGASVKVSCKASGYTFTNYYMHWVRQAPGQGLEWVGWINPYTGSAFYAQKFRGRVTMTRDTSISTAYMELSRLRSDDTAVYYCAREPEKFDSDDSDVWGRGTLVTVSS VL: QAVLTQPPSVSGAPGQRVTISCTGSSSNIGAGYGVHWYQQLPGTAPKLLIYGDSNRPSGVPDRFSGSKSGTSASLAITGLQAEDEADYYCQSYDNSLSGYVFGGGTQLTVLG", "values": [
      {"measurement": "IC50 in GROa cell based assay", "setting": "human IL-22 [1]", "result": 0.124, "unit": "nM"},
      {"measurement": "IC50 in GROa cell based assay", "setting": "murine IL-22 [2]", "result": 0.144, "unit": "nM"},
      {"measurement": "IC50 in GROa cell based assay", "setting": "rat IL-22 [3]", "result": 0.211, "unit": "nM"},
      {"measurement": "IC50 in GROa cell based assay", "setting": "monkey IL-22 [4]", "result": 0.0896, "unit": "nM"},
      {"measurement": "IC50 in BaF3 cell based assay", "setting": "human IL-22 [5]", "result": 0.00357, "unit": "nM"},
      {"measurement": "IC50 in BaF3 cell based assay", "setting": "murine IL-22 [6]", "result": 0.00253, "unit": "nM"},
      {"measurement": "IC50 in BaF3 cell based assay", "setting": "rat IL-22 [7]", "result": 0.0107, "unit": "nM"},
      {"measurement": "IC50 in BaF3 cell based assay", "setting": "monkey IL-22 [8]", "result": 0.00258, "unit": "nM"},
      {"measurement": "binding result", "setting": "human IL-20", "result": "no binding"},
      {"measurement": "binding result", "setting": "human IL-24", "result": "no binding"},
      {"measurement": "binding result", "setting": "human IL-28A", "result": "no binding"},
      {"measurement": "binding result", "setting": "human IL-29", "result": "no binding"},
      {"measurement": "binding result", "setting": "human IFN-ω", "result": "no binding"},
      {"measurement": "binding result", "setting": "human IL-10", "result": "no binding"},
      {"measurement": "binding result", "setting": "human IL-19", "result": "no binding"},
      {"measurement": "Ka", "setting": "human IL-22 [9]", "result": "1.85e+10", "unit": "M⁻¹"},
      {"measurement": "Kd", "setting": "human IL-22 [9]", "result": 0.054, "unit": "nM"},
      {"measurement": "koff", "setting": "human IL-22 [9]", "result": "4.27e-06", "unit": "s⁻¹"},
      {"measurement": "kon", "setting": "human IL-22 [9]", "result": 79100, "unit": "M⁻¹ s⁻¹"}
    ]}
  ]
}
